2 molecules from US20090111745A1 (DOMANTIS, published 2009) can be followed below.

The target of experiment [1] is T1, mouse serum albumin (mouse, UniProt P07724 25-608).
T1 construct: also called MSA
The experiment can be described thus: phage display selection on albumin (figure legend).

Experiment [2] concerns the target T2, rat serum albumin (rat, UniProt P02770 25-608).
T2 construct: also called RSA
The experiment can be described thus: BIACORE SPR, albumin on a CM5 chip, dAb in solution. Background: In SPR one partner is held on a chip, and binding of the other changes the refractive index at the surface.
Method: (§1) dAbs that bound serum albumin on a BIACORE chip (Biacore AB) were then further analysed to obtain information on affinity. The analysis was performed using a CM5 chip (carboxymethylated dextran matrix) that was coated with serum albumin. Flow cell 1 was an uncoated, blocked negative control, flow cell 2 was coated with HSA, flow cell 3 was coated with RSA and flow cell 4 was coated with MSA. The serum albumins were immobilised in acetate buffer pH 5.5 using the BIACORE coating wizard which was programmed to aim for 500 resonance units (RUs) of coated material. Each dAb of interest was expressed in the periplasm of E. coli on a 200 mL-500 mL scale and purified from the supernatant using batch absorption to protein A-streamline affinity resin (Amersham, UK) for the VH_{^S} and to protein L-agarose affinity resin (Affitech, Norway) for the Vκs followed by elution with glycine at pH 2.2 and buffer exchange to PBS. A range of concentrations of dAb were prepared (in the range 5 nM to 5 μM) by dilution into BIACORE HBS-EP buffer and flowed across the BIACORE chip.

Experiment [3] addresses T3, human serum albumin (human, UniProt P02768 25-609).
T3 construct: also called HSA; HAS
Described as above.
Method: as §1

Experiment [4] addresses T3, human serum albumin. Kind of experiment: method not stated there (BIACORE SPR in Example 1); reference value given inside prophetic Example 10.
The next experiment has as its target porcine serum albumin (porcine, UniProt P08835 25-607). The experiment can be described thus: method not stated in the legend (BIACORE SPR for the other affinities).
The target of experiment [5] is T1, mouse serum albumin. The experiment can be described thus: table of affinities (KD); BIACORE on serum albumin-coated chip according to Example 1.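 Further: surface plasmon resonance with dAbs flowed over a chip carrying human, rat or mouse serum albumin, blocked uncoated flow cell as reference, KD from on- and off-rate curve fits.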
Method: as §1
Experiment [6] deals with T2, rat serum albumin. Described as above.
Method: as §1

Chain of porcine serum albumin (P08835 25-607 limits assumed): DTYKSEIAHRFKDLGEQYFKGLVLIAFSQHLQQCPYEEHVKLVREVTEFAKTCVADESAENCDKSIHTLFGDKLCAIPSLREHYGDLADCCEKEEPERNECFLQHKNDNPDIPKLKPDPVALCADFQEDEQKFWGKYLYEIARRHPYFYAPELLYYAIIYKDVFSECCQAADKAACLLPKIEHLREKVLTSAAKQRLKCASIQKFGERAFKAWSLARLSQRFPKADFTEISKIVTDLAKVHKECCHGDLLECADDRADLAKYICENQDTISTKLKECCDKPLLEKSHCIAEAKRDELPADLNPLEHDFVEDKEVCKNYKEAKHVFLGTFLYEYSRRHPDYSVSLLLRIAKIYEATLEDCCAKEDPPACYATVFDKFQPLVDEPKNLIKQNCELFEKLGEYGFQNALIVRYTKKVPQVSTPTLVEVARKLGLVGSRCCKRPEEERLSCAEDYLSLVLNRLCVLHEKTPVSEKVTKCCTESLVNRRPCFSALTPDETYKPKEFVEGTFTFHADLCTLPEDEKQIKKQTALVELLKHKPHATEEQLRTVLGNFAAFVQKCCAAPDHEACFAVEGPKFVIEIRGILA

B1: DOM7m-12 (other)
VL: DIQMTQSPSSLSASVGDRVTITCRASQSIFRHLKWYQQKPGKAPKLLIYAASRLQSGVPSRFSGSGSGTDFTLTISSLQPEDFATYYCQQVALYPKTFGQGTKVEIKR
notes: also called MSA 12
As for B1, the binding result with mouse serum albumin [1] is reported as “binds”.

B2: DOM7h-8 (other)
VL: DIQMTQSPSSLSASVGDRVTITCRASQSISSYLNWYQQKPGKAPKLLIYRNSPLQSGVPSRFSGSGSGTDFTLTISSLQPEDFATYYCQQTYRVPPTFGQGTKVEIKR
Take B2: the Kd (usually the concentration at which binding is half-saturated) with rat serum albumin [2] is 100 to 500 nM; in the experiment with human serum albumin [3], 10 to 100 nM; in the experiment with human serum albumin [4], 70 nM; with porcine serum albumin it was 60 nM; with mouse serum albumin [5] it was 200 nM; with rat serum albumin [6], 120 nM.
